Results on 4 molecules are retold here after patent publication US20050119454A1.

The test deals with human long isoform dopamine D2 (D2DA) receptor (human), P14416. The test can be described thus: cell-based or functional assay.
human long isoform dopamine D2 (D2DA) receptor (human), P14416, sequence (P14416 whole entry, canonical isoform): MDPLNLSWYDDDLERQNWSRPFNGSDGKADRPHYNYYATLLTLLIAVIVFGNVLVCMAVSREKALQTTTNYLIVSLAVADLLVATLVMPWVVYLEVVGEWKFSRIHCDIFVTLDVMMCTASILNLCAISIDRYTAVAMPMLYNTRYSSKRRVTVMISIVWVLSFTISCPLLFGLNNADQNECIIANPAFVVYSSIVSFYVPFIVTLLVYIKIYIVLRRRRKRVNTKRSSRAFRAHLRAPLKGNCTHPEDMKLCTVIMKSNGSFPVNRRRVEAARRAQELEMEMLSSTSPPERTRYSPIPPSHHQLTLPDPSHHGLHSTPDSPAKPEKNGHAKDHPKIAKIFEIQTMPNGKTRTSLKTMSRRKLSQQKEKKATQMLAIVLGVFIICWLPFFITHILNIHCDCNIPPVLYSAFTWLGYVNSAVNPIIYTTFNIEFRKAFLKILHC

B1: … (peptide)
peptide: ERNRKPLRPKNKYLI
As to B1, the EAR response to dopamine, LtK system, paired one-tailed t-test amounted to 25.5 t statistic and the dopamine-induced EAR, CHO cells, paired one-tailed t-test amounted to 1.54 t statistic.

B2: H-…-OH (peptide)
peptide: H-SHQRWEYKGVNCIVY-OH
Turning to B2, the potentiation of the dopamine-induced increment in total milli-pH units (EAR), CHO system, paired one-tailed t-test came out at 28.1 t statistic and the potentiation of the dopamine-induced increment in total milli-pH units (EAR), LtK system, paired one-tailed t-test was 13.3 t statistic.

B3: H-…-OH (peptide)
peptide: H-THQAFHYCNKQCLVI-OH
modifications: cysteine pairing not given here
For the molecule B3, the potentiation of the dopamine response (EAR), CHO system, paired one-tailed t-test turned out to be 1.31 t statistic and the potentiation of the dopamine response (EAR), LtK system, paired one-tailed t-test was determined as 0.62 t statistic.

B4: H-…-OH (peptide)
peptide: H-ERNRKPYRPKNKYLL-OH
In the case of B4, the EAR response to dopamine, LtK system, paired one-tailed t-test was found to be 69.8 t statistic and the dopamine-induced EAR, CHO cells, paired one-tailed t-test amounted to 1.28 t statistic.
